Legend:
Assay in all cases: cell_activity
[1] = system: SB03937 ZF10-HDAC4-ecpd-degron (synthetic construct); details: mCherry increase with 1 uM pomalidomide vs no drug; represses without drug; U87-MG
[2] = system: SB03936 degron-A(EAAAK)3A-HDAC4-ZF10-1 (synthetic construct); details: mCherry increase with 1 uM pomalidomide vs no drug; represses without drug; U87-MG
[3] = system: SB03758 degron-A(EAAAK)3A-ZF10-minKRAB (synthetic construct); details: mCherry increase with 1 uM pomalidomide vs no drug (release of repression); U87-MG
Chain of SB03758 degron-A(EAAAK)3A-ZF10-minKRAB (synthetic construct) (chain, as listed by the source): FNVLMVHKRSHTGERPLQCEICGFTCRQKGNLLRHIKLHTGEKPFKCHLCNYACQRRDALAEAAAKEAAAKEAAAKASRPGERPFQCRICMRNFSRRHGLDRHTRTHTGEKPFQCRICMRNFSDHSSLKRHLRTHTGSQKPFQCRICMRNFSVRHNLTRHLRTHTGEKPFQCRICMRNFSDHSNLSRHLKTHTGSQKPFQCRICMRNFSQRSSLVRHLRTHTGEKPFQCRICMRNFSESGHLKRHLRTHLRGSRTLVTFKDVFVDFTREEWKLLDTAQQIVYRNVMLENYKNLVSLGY

[4] = system: SB03759 degron-A(EAAAK)3A-ZF10-1-minKRAB (synthetic construct); details: mCherry increase with 1 uM pomalidomide vs no drug (release of repression); U87-MG; text describes the reporter as SEQ ID NO 56 core promoter with four …
Chain of SB03759 degron-A(EAAAK)3A-ZF10-1-minKRAB (synthetic construct) (chain, as listed by the source): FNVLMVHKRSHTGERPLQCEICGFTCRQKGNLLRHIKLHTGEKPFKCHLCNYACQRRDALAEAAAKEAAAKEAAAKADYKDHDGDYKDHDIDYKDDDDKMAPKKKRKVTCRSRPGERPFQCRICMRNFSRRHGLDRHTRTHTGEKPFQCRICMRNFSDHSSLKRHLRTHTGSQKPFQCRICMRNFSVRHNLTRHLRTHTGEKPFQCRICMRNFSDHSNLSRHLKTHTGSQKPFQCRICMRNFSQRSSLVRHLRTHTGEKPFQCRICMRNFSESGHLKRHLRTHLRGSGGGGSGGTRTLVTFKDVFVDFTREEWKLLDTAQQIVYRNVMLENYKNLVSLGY

Measured: activity

Chain of SB03937 ZF10-HDAC4-ecpd-degron (synthetic construct) (chain, as listed by the source): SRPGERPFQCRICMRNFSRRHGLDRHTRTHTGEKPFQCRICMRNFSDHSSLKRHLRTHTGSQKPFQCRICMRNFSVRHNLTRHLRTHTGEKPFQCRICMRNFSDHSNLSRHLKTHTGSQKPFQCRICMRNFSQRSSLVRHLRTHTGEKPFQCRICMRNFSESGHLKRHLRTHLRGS

CGGGTTTCGTAACAATCGCATGAGGATTCGCAACGCCTTCGGCGTAGCCGATGTCGCGCTCCCGTCTCAGTAAAGGTCGGCGTAGCCGATGTCGCGCAATCGGACTGCCTTCGTACGGCGTAGCCGATGTCGCGCGTATCAGTCGCCTCGGAACGGCGTAGCCGATGTCGCGCATTCGTAAGAGGCTCACTCTCCCTTACACGGAGTGGATAACTAGTTCTAGAGGGTATATAATGGGGGCCA (double strand) [4xZF10-1 binding sites + core promoter (mCherry reporter)]
> 4 fold: all assays above

Source: patent US20240141364
